Results taken from patent US20040014134.

Target: Fusion protein B (variant 2; rsGFP - cleavage site segment with TEV protease cleavage site - DsRed)

B1: TEV protease (protease from the tobacco etch virus) (protein)
chain: GESLFKGPRDYNPISSTICHLTNESDGHTTSLYGIGFGPFIITNKHLFRRNNGTLLVQSLHGVFKVKNTTTLQQHLIDGRDMIIIRMPKDFPPFPQKLKFREPQREERICLVTTNFQTKSMSSMVSDTSCTFPSSDGIFWKHWIQTKDGQCGSPLVSTRDGFIVGIHSASNFTNTNNYFTSVPKNFMELLTNQEAQQWVSGWRLNADSVLWGGHKVFMSKPEEPFQPVKEATQLMNELVYSQ
  two-photon cross-correlation amplitude (dual-colour FCS protease cleavage assay): The cleavage of the bond and the consequent reduction of the proportion of double fluorescing molecules in the measurement solution cause the decrease of the cross-correlation amplitude.
